± gives the uncertainty stated by the source.
B1: Mineralocorticoid receptor, residues 600 to 675; numbered along this chain, P08235 (parent)
chain: SKICLVCGDEASGCHYGVVTCGSCKVFFKRAVEGQHNYLCAGRNDCIIDKIRRKNCPACRLQKCLQAGMNLGARKS

Variants of: B1
Assay: abundance fitness (aPCA) (normalised: wild type 0, dead -1); higher = more abundant; growth selection in yeast, the domain comes from the species named
Conditions: Homo sapiens

Question: With SKICLVCGDEASGCHYGVVTCGSCKVFFKRAVEGQHNYLCAGRNDCIISKIRRKNCPACRLQKCLQAGMNLGARKS [D49S] as the variant, how does the abundance fitness read?
Answer: Its abundance fitness is -0.041 ± 0.028.

Question: With SKICLVCGDEASGCHYGVVTCGSCKVFFKRAVEGQHNYLCAGRNDCIIAKIRRKNCPACRLQKCLQAGMNLGARKS [D49A] as the variant, how does the abundance fitness read?
Answer: Its abundance fitness is -0.141 ± 0.031.

Question: With SKICLVCGDEASGCHYGVVTCGSCKVFFKRAVEGQHNYLCAGRNDCIIVKIRRKNCPACRLQKCLQAGMNLGARKS [D49V] as the variant, how does the abundance fitness read?
Answer: Its abundance fitness is -0.219 ± 0.039.

Question: Which abundance fitness does the source give for SKICLVCGDEASGCHYGVVTCGSCKVFFKRAVEGQHNYLCAGRNDCIILKIRRKNCPACRLQKCLQAGMNLGARKS [D49L] here?
Answer: The abundance fitness was -0.221 ± 0.039.

Question: For SKICLVCGDEASGCHYGVVTCGSCKVFFKRAVEGQHNYLCAGRNDCIIHKIRRKNCPACRLQKCLQAGMNLGARKS [D49H], which abundance fitness is on record?
Answer: The abundance fitness was -0.276 ± 0.054.

Question: For SKICLVCGDEASGCHYGVVTCGSCKVFFKRAVEGQHNYLCAGRNDCIIFKIRRKNCPACRLQKCLQAGMNLGARKS [D49F], which abundance fitness is on record?
Answer: The abundance fitness was -0.251 ± 0.038.

Question: With SKICLVCGDEASGCHYGVVTCGSCKVFFKRAVEGQHNYLCAGRNDCIIRKIRRKNCPACRLQKCLQAGMNLGARKS [D49R] as the variant, how does the abundance fitness read?
Answer: The abundance fitness was -0.287 ± 0.029.

Question: For SKICLVCGDEASGCHYGVVTCGSCKVFFKRAVEGQHNYLCAGRNDCIIEKIRRKNCPACRLQKCLQAGMNLGARKS [D49E], which abundance fitness is on record?
Answer: Its abundance fitness is -0.04 ± 0.038.

Question: With SKICLVCGDEASGCHYGVVTCGSCKVFFKRAVEGQHNYLCAGRNDCIIKKIRRKNCPACRLQKCLQAGMNLGARKS [D49K] as the variant, how does the abundance fitness read?
Answer: Its abundance fitness is -0.167 ± 0.049.

Question: Which abundance fitness does the source give for SKICLVCGDEASGCHYGVVTCGSCKVFFKRAVEGQHNYLCAGRNDCIIMKIRRKNCPACRLQKCLQAGMNLGARKS [D49M] here?
Answer: Its abundance fitness is -0.3 ± 0.079.

Question: With SKICLVCGDEASGCHYGVVTCGSCKVFFKRAVEGQHNYLCAGRNDCIIPKIRRKNCPACRLQKCLQAGMNLGARKS [D49P] as the variant, how does the abundance fitness read?
Answer: The abundance fitness was -0.327 ± 0.049.

Question: With SKICLVCGDEASGCHYGVVTCGSCKVFFKRAVEGQHNYLCAGRNDCIIIKIRRKNCPACRLQKCLQAGMNLGARKS [D49I] as the variant, how does the abundance fitness read?
Answer: Its abundance fitness is -0.274 ± 0.047.

Question: For SKICLVCGDEASGCHYGVVTCGSCKVFFKRAVEGQHNYLCAGRNDCIINKIRRKNCPACRLQKCLQAGMNLGARKS [D49N], which abundance fitness is on record?
Answer: Its abundance fitness is -0.054 ± 0.043.

Question: With SKICLVCGDEASGCHYGVVTCGSCKVFFKRAVEGQHNYLCAGRNDMIIDKIRRKNCPACRLQKCLQAGMNLGARKS [C46M] as the variant, how does the abundance fitness read?
Answer: Its abundance fitness is -0.81 ± 0.3.

Question: For SKICLVCGDEASGCHYGVVTCGSCKVFFKRAVEGQHNYLCAGRNDSIIDKIRRKNCPACRLQKCLQAGMNLGARKS [C46S], which abundance fitness is on record?
Answer: Its abundance fitness is -0.946 ± 0.097.

Question: Which abundance fitness does the source give for SKICLVCGDEASGCHYGVVTCGSCKVFFKRAVEGQHNYLCAGRNDNIIDKIRRKNCPACRLQKCLQAGMNLGARKS [C46N] here?
Answer: The abundance fitness was -0.921 ± 0.15.

Question: With SKICLVCGDEASGCHYGVVTCGSCKVFFKRAVEGQHNYLCAGRNDFIIDKIRRKNCPACRLQKCLQAGMNLGARKS [C46F] as the variant, how does the abundance fitness read?
Answer: The abundance fitness was -0.653 ± 0.065.

Question: With SKICLVCGDEASGCHYGVVTCGSCKVFFKRAVEGQHNYLCAGRNDLIIDKIRRKNCPACRLQKCLQAGMNLGARKS [C46L] as the variant, how does the abundance fitness read?
Answer: The abundance fitness was -0.819 ± 0.094.

Question: With SKICLVCGDEASGCHYGVVTCGSCKVFFKRAVEGQHNYLCAGRNDKIIDKIRRKNCPACRLQKCLQAGMNLGARKS [C46K] as the variant, how does the abundance fitness read?
Answer: The abundance fitness was -0.839 ± 0.17.

Question: For SKICLVCGDEASGCHYGVVTCGSCKVFFKRAVEGQHNYLCAGRNDVIIDKIRRKNCPACRLQKCLQAGMNLGARKS [C46V], which abundance fitness is on record?
Answer: Its abundance fitness is -0.813 ± 0.15.

Question: Which abundance fitness does the source give for SKICLVCGDEASGCHYGVVTCGSCKVFFKRAVEGQHNYLCAGRNDWIIDKIRRKNCPACRLQKCLQAGMNLGARKS [C46W] here?
Answer: The abundance fitness was -0.856 ± 0.15.

Question: With SKICLVCGDEASGCHYGVVTCGSCKVFFKRAVEGQHNYLCAGRNDRIIDKIRRKNCPACRLQKCLQAGMNLGARKS [C46R] as the variant, how does the abundance fitness read?
Answer: Its abundance fitness is -0.821 ± 0.088.

Question: Which abundance fitness does the source give for SKICLVCGDEASGCHYGVVTCGSCKVFFKRAVEGQHNYLCAGRNDQIIDKIRRKNCPACRLQKCLQAGMNLGARKS [C46Q] here?
Answer: The abundance fitness was -0.966 ± 0.2.

Question: For SKICLVCGDEASGCHYGVVTCGSCKVFFKRAVEGQHNYLCAGRNDEIIDKIRRKNCPACRLQKCLQAGMNLGARKS [C46E], which abundance fitness is on record?
Answer: Its abundance fitness is -0.852 ± 0.34.

Question: With SKICLVCGDEASGCHYGVVTCGSCKVFFKRAVEGQHNYLCAGRNDGIIDKIRRKNCPACRLQKCLQAGMNLGARKS [C46G] as the variant, how does the abundance fitness read?
Answer: Its abundance fitness is -0.636 ± 0.11.

Question: For SKICLVCGDEASGCHYGVVTCGSCKVFFKRAVEGQHNYLCAGRNDIIIDKIRRKNCPACRLQKCLQAGMNLGARKS [C46I], which abundance fitness is on record?
Answer: The abundance fitness was -0.827 ± 0.11.

Question: For SKICLVCGDEASGCHYGVVTCGSCKVFFKRAVEGQHNYLCAGRNDAIIDKIRRKNCPACRLQKCLQAGMNLGARKS [C46A], which abundance fitness is on record?
Answer: Its abundance fitness is -0.744 ± 0.12.

Question: Which abundance fitness does the source give for SKICLVCGDEASGCHYGVVTCGSCKVFFKRAVEGQHNYLCAGRNDPIIDKIRRKNCPACRLQKCLQAGMNLGARKS [C46P] here?
Answer: Its abundance fitness is -0.856 ± 0.13.

Question: With SKICLVCGDEASGCHYGVVTCGSCKVFFKRAVEGQHNYLCAGRNDDIIDKIRRKNCPACRLQKCLQAGMNLGARKS [C46D] as the variant, how does the abundance fitness read?
Answer: Its abundance fitness is -0.785 ± 0.23.

Question: Which abundance fitness does the source give for SKICLVCGDEASGCHYGVVTCGSCKVFFKRAVEGQHNYLCAGRNDHIIDKIRRKNCPACRLQKCLQAGMNLGARKS [C46H] here?
Answer: The abundance fitness was -0.011 ± 0.044.

Question: Which abundance fitness does the source give for SKICLVCGDEASGCHYGVVTCGSCKVFFKRAVEGQHNYLCAGRNDCIFDKIRRKNCPACRLQKCLQAGMNLGARKS [I48F] here?
Answer: Its abundance fitness is -0.104 ± 0.044.

Question: With SKICLVCGDEASGCHYGVVTCGSCKVFFKRAVEGQHNYLCAGRNDCIKDKIRRKNCPACRLQKCLQAGMNLGARKS [I48K] as the variant, how does the abundance fitness read?
Answer: Its abundance fitness is -0.082 ± 0.06.

Question: With SKICLVCGDEASGCHYGVVTCGSCKVFFKRAVEGQHNYLCAGRNDCIADKIRRKNCPACRLQKCLQAGMNLGARKS [I48A] as the variant, how does the abundance fitness read?
Answer: The abundance fitness was -0.074 ± 0.037.

Question: With SKICLVCGDEASGCHYGVVTCGSCKVFFKRAVEGQHNYLCAGRNDCITDKIRRKNCPACRLQKCLQAGMNLGARKS [I48T] as the variant, how does the abundance fitness read?
Answer: The abundance fitness was -0.026 ± 0.035.

Question: For SKICLVCGDEASGCHYGVVTCGSCKVFFKRAVEGQHNYLCAGRNDCILDKIRRKNCPACRLQKCLQAGMNLGARKS [I48L], which abundance fitness is on record?
Answer: The abundance fitness was -0.077 ± 0.03.

Question: For SKICLVCGDEASGCHYGVVTCGSCKVFFKRAVEGQHNYLCAGRNDCIMDKIRRKNCPACRLQKCLQAGMNLGARKS [I48M], which abundance fitness is on record?
Answer: The abundance fitness was 0.021 ± 0.048.

Reference: the Human Domainome abundance scans (Beltran et al. 2025)
